Experimental data reported in paper PMC7537107 (Journal of neurochemistry, 2019).

B1: HA-tagged spinophilin, full length (amino acids 1-817, fragment A) (natural protein)
chain: not shown
B2: V5-tagged GluN2B C-terminal, cytosolic tail (amino acids 839-1484) (domain or fragment, human, UniProt Q13224 839-1484, looked up)
chain: EHLFYWQFRHCFMGVCSGKPGMVFSISRGIYSCIHGVAIEERQSVMNSPTATMNNTHSNILRLLRTAKNMANLSGVNGSPQSALDFIRRESSVYDISEHRRSFTHSDCKSYNNPPCEENLFSDYISEVERTFGNLQLKDSNVYQDHYHHHHRPHSIGSASSIDGLYDCDNPPFTTQSRSISKKPLDIGLPSSKHSQLSDLYGKFSFKSDRYSGHDDLIRSDVSDISTHTVTYGNIEGNAAKRRKQQYKDSLKKRPASAKSRREFDEIELAYRRRPPRSPDHKRYFRDKEGLRDFYLDQFRTKENSPHWEHVDLTDIYKERSDDFKRDSVSGGGPCTNRSHIKHGTGDKHGVVSGVPAPWEKNLTNVEWEDRSGGNFCRSCPSKLHNYSTTVTGQNSGRQACIRCEACKKAGNLYDISEDNSLQELDQPAAPVAVTSNASTTKYPQSPTNSKAQKKNRNKLRRQHSYDTFVDLQKEEAALAPRSVSLKDKGRFMDGSPYAHMFEMSAGESTFANNKSSVPTAGHHHHNNPGGGYMLSKSLYPDRVTQNPFIPTFGDDQCLLHGSKSYFFRQPTVAGASKARPDFRALVTNKPVVSALHGAVPARFQKDICIGNQSNPCVPNNKNPRAFNGSSNGHVYEKLSSIESDV

Assays:
[1] = molecular target: B2; assay: co-IP
[2] = molecular target: B1; assay: co-IP

Binder	fold change of co-IP with IBMX/forskolin against vehicle (V5 IP) [1]	fold change of co-IP with PKAc overexpressed against without (GluN2B_(Tail) IP) [1]	fold change of co-IP with IBMX/forskolin against vehicle (HA IP) [2]	fold change of co-IP with PKAc overexpressed against without (spinophilin IP) [2]
B1	3.05 ratio to control	10.6 ratio to control	–	–
B2	–	–	1.48 ratio to control	2.14 ratio to control
